Sequences and labels used below:
B1: FLAG-tagged full-length ORF57 [Kaposi's sarcoma-associated herpesvirus (KSHV, HHV8)] / itself (parent complex)
chain: MVQAMIDMDIMKGILEDSVSSSEFDESRDDETDAPTLEDEQLSEPAEPPADERIRGTQSAQGIPPPLGRIPKKSQGRSQLRSEIQFCSPLSRPRSPSPVNRYGKKIKFGTAGQNTRPPPEKRPRRRPRDRLQYGRTTRGGQCRAAPKRATRRPQVNCQRQDDDVRQGVSDAVKKLRLPASMIIDGESPRFDDSIIPRHHGACFNVFIPAPPSHVPEVFTDRDITALIRAGGKDDELINKKISAKKIDHLHRQMLSFVTSRHNQAYWVSCRRETAAAGGLQTLGAFVEEQMTWAQTVVRHGGWFDEKDIDIILDTAIFVCNAFVTRFRLLHLSCVFDKQSELALIKQVAYLVAMGNRLVEACNLLGEVKLNFRGGLLLAFVLTIPGMQSRRSISARGQELFRTLLEYYRPGDVMGLLNVIVMEHHSLCRNSECAAATRAAMGSAKFNKGLFFYPLS

In this assay the parent is B1. In words: in vitro crosslinking assay (DSS) with anti-FLAG Western blot; HEK293 cells, 0.5 μg plasmid for WT and 2 μg for mutant, DSS 50 μM for 30 min; lanes 14 (WT) and 16 (mutant); parent: 0.15. (In general: In western blotting, separated proteins are transferred to a membrane and probed.)
For the variant MVQAMIDMDIMKGILEDSVSSSEFDESRDDETDAPTLEDEQLSEPAEPPADERIRGTQSAQGIPPPLGRIPKKSQGRSQLRSEIQFCSPLSRPRSPSPVNRYGKKIKFGTAGQNTRPPPEKRPRRRPRDRLQYGRTTRGGQCRAAPKRATRRPQVNCQRQDDDVRQGVSDAVKKLRLPASMIIDGESPRFDDSIIPRHHGACFNVFIPAPPSHVPEVFTDRDITALIRAGGKDDELINKKISAKKIDHLHRQMLSFVTSRHNQAYWVSCAAETAAAGGLQTLGAFVEEQMTWAQTVVRHGGWFDEKDIDIILDTAIFVCNAFVTRFRLLHLSCVFDKQSELALIKQVAYLVAMGNRLVEACNLLGEVKLNFRGGLLLAFVLTIPGMQSRRSISARGQELFRTLLEYYRPGDVMGLLNVIVMEHHSLCRNSECAAATRAAMGSAKFNKGLFFYPLS [chain 1 R270A, chain 1 R271A], the screen value amounted to 0.07.
